According to article PMC11344771, “The Chlamydia pneumoniae effector SemD exploits its host’s endocytic machinery by structural and functional mimicry” (Nature Communications, 2024):

Experiments:
[1] = target: T1, SemDΔAPH_(67-382) (Chlamydia pneumoniae); test: SEC-SAXS; Superdex200 increase 10/300 GL, PBS pH 8.5 + 3 % glycerol, 20 °C; 8 mg/ml SemDΔAPH, 10 mg/ml BR-GBD, 8 mg/ml SemDΔAPH + BR-GBD, 3.3 mg/l SemDΔAPH + SNX9-SH3; settings: both partners purified
T1 construct: SemD of Chlamydia pneumoniae (382 aa), N-terminally truncated up to and including the APH motif; residues 67-382 (G67-E382); from synthetic semD DNA codon optimised for E. coli; Monomer in solution by SAXS; also called SemDΔAPHHis; source: E. coli BL21 (DE3), purified (Ni-NTA Agarose, SEC); not shown: 10xHis, C-terminal, kept

[2] = target: T2, BR-GBD fused to GFP (BR-GBD_(GFP-His)) (Rattus norvegicus, UniProt O08816 142-273); test: pull-down; GFP-Trap agarose, BR-GBD_(GFP-His) or GFP alone as bait, equimolar test protein, 5 min RT then 30 min 4 °C, washed 6x with 10 mM Tris-HCl, 200 mM NaCl, pH 8.5; immunoblot, Elution:FT ratio normalised to the bait; settings: both partners purified
T2 construct: amplified from GFP-N-WASP (Addgene #47406), in pDS94; source: E. coli BL21 (DE3), purified (Ni-NTA Agarose); not shown: GFP, C-terminal, kept; 10xHis, C-terminal, kept
T2 sequence (O08816 142-273): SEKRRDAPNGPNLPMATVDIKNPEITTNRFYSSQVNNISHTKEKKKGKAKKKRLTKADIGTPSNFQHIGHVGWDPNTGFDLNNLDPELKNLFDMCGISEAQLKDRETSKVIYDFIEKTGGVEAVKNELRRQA

B1: SNX9-SH3 (domain or fragment)
chain: MATKARVMYDFAAEPGNNELTVNEGEIITITNPDVGGGWLEGRNIKGERGLVPTDYVEILPS
stoichiometry N [1]: 1

B2: Cdc42 bound to a non-hydrolysable GTP analogue (Cdc42_(GppNHp)) (natural protein)
chain: not shown
notes: human CDC42 in pGEX-4T-1; also called Cdc42_(mGppNHp); active Cdc42; source: E. coli Rosetta, purified (Glutathione sepharose, thrombin cleavage), loaded with GppNHp or mGppNHp
normalised Elution:FT ratio [2]: ~100%
